Data taken from patent US20250197848A1 (published 2025).

T1: PRAME peptide on HLA-A*02:01 (human)
T1 peptide: SLLQHLIGL

T2: PRAME peptide on HLA-A*02:01 (human)
T2 peptide: VLDGLDVLL

T3: NY-ESO-1/LAGE-1 peptide on HLA-A*02 (human)
T3 peptide: SLLMWITQC

B1: PRAMEVLD-TCR (TCR, V domains shown)
Valpha: EDQVTQSPEALRLQEGESSSLNCSYTVSGLRGLFWYRQDPGKGPEFLFTLYSAGEEKEKERLKATLTKKESFLHITAPKPEDSATYLCAVHSTAQAGTALIFGKGTTLSVSS
Vbeta: DSGVTQTPKHLITATGQRVTLRCSPRSGDLSVYWYQQSLDQGLQFLIQYYNGEERAKGNILERFSAQQFPDLHSELNLSSLELGDSALYFCASSTHRGQTNYGYTFGSGTRLTVV
B2: NY-ESO TCR (TCR, V domains shown)
Valpha: QKEVEQNSGPLSVPEGAIASLNCTYSDRGSQSFFWYRQYSGKSPELIMFIYSNGDKEDGRFTAQLNKASQYVSLLIRDSQPSDSATYLCAADDKIIFGKGTRLHILP
Vbeta: DAGVIQSPRHEVTEMGQEVTLRCKPISGHDYLFWYRQTMMRGLELLIYFNNNVPIDDSGMPEDRFSAKMPNASFSTLKIQPSEPRDSAVYFCASSRGGSGYTFGSGTRLTVV

Tests used:
[1] = target: T1, PRAME peptide on HLA-A*02:01; test: activation reporter or marker
[2] = target: T2, PRAME peptide on HLA-A*02:01; test: cytokine release
[3] = target: T3, NY-ESO-1/LAGE-1 peptide on HLA-A*02; test: cytokine release

Binder	binding result [1]	binding result [2]	binding result [3]
B1	no recognition	recognises	
B2			recognises
